Measurements taken from patent US20130004490A1 (UNITED STATES OF AMERICA AS REPRESENTED BY THE SECRETARY …, published 2013).

Biological target: T1, mouse ICAM-1 expressed on activated mouse endothelial cells (mouse, UniProt P13597 28-537)
T1 construct: whole, on cells
Experiment: FITC-labeled γ3 carriers on activated endothelial cells, fluorescence microscopy, 1 h 37 C
Method: Binding of FITC-labeled γ3 carriers to activated HUVEC cells (bars) vs ICAM-1-negative 293 cells (dotted line) was quantified by fluorescence microscopy after 1 h incubation at 37° C., in the absence or presence of excess γ3, anti-ICAM, or γ3 scramble peptide. The γ3 carriers bound to native ICAM-1 expressed by both activated human and mouse endothelial cells, but not control 293 cells which are known to be voided of ICAM-1 expression (FIG. 5C).

T1 sequence (P13597 28-537): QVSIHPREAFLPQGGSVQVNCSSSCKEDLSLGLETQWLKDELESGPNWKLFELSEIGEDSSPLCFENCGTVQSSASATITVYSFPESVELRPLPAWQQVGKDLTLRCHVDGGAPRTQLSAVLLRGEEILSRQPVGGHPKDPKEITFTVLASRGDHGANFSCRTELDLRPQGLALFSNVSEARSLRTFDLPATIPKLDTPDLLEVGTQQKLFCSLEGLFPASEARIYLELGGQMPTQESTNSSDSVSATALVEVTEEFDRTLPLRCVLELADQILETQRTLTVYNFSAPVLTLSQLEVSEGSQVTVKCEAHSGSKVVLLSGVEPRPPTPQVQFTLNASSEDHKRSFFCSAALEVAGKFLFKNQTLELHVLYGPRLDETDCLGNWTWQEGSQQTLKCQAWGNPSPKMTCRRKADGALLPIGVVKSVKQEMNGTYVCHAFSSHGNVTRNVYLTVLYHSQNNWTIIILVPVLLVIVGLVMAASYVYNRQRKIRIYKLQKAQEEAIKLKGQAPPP

B1: ICAM-1 affinity peptide γ3, a 17-mer polypeptide derived from fibrinogen (peptide)
peptide: NNQKIVNLKEKVAQLEA
notes: also called γ3 peptide; γ3 carriers
binding result: binds
